Results: publication PMC2753885 (Biochemistry, 2009)
Read-outs that look alike come from different tables or passages of the source.

T1: YPD1, histidine-containing phosphotransfer (HPt) protein (S. cerevisiae, UniProt Q07688 1-167)
T1 sequence (looked up): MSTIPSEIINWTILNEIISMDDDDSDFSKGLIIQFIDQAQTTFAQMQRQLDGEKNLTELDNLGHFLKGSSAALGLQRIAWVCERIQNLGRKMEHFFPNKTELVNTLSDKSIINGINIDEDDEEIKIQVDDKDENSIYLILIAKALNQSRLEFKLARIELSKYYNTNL

T2: SSK1 response regulator (receiver) domain, SSK1-R2 (S. cerevisiae, UniProt Q07084 495-712)
T2 sequence (looked up): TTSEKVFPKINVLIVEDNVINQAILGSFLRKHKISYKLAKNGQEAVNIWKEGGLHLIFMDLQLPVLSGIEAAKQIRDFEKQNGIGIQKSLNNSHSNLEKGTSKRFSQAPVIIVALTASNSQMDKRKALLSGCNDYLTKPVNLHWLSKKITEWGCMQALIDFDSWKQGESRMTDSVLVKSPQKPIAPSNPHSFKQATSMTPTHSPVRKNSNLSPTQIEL

B1: phosphorylated SLN1 response regulator (receiver) domain, SLN1-R1∼P (domain or fragment, S. cerevisiae, UniProt P39928 1084-1220, looked up)
chain: NETSVKILVVEDNHVNQEVIKRMLNLEGIENIELACDGQEAFDKVKELTSKGENYNMIFMDVQMPKVDGLLSTKMIRRDLGYTSPIVALTAFADDSNIKECLESGMNGFLSKPIKRPKLKTILTEFCAAYQGKKNNK
modifications: phosphorylated (32P) by phosphotransfer from phospho-SLN1-HK; residue not printed for this domain
B2: phosphorylated YPD1, YPD1∼P (natural protein, S. cerevisiae, UniProt Q07688 1-167, looked up)
chain: T1 sequence (looked up)
modifications: phosphorylated (32P) by phosphotransfer from GST-SLN1-HK-R1; residue not given

How the values were obtained:
Assay in all cases: rapid-quench phosphotransfer kinetics
[1] = molecular target: T1, YPD1, histidine-containing …
[2] = molecular target: T1, YPD1, histidine-containing …; remark: listed apart in the source
[3] = molecular target: T1, YPD1, histidine-containing …; remark: listed apart in the source
[4] = molecular target: T1, YPD1, histidine-containing …; remark: listed apart in the source
[5] = molecular target: T1, YPD1, histidine-containing …; remark: listed apart in the source
[6] = molecular target: T1, YPD1, histidine-containing …; remark: listed apart in the source
[7] = molecular target: T1, YPD1, histidine-containing …; remark: listed apart in the source
[8] = molecular target: T1, YPD1, histidine-containing …; remark: listed apart in the source
[9] = molecular target: T1, YPD1, histidine-containing …; remark: listed apart in the source
[10] = molecular target: T1, YPD1, histidine-containing …; remark: listed apart in the source
[11] = molecular target: T2, SSK1 response regulator (receiver) …
[12] = molecular target: T2, SSK1 response regulator (receiver) …; remark: listed apart in the source
[13] = molecular target: T2, SSK1 response regulator (receiver) …; remark: listed apart in the source
[14] = molecular target: T2, SSK1 response regulator (receiver) …; remark: listed apart in the source
[15] = molecular target: T2, SSK1 response regulator (receiver) …; remark: listed apart in the source
[16] = molecular target: T2, SSK1 response regulator (receiver) …; remark: listed apart in the source
[17] = molecular target: T2, SSK1 response regulator (receiver) …; remark: listed apart in the source
[18] = molecular target: T2, SSK1 response regulator (receiver) …; remark: listed apart in the source
[19] = molecular target: T2, SSK1 response regulator (receiver) …; remark: listed apart in the source
[20] = molecular target: T2, SSK1 response regulator (receiver) …; remark: listed apart in the source

| Binder | Kd [1] | Kd [2] | Kd [3] | Kd [4] | Kd [5] | Kd [6] | Kd [7] | Kd [8] | Kd [9] | Kd [10] | Kd [11] | Kd [12] | Kd [13] | Kd [14] | Kd [15] | Kd [16] | Kd [17] | Kd [18] | Kd [19] | Kd [20] |
| --- | --- | --- | --- | --- | --- | --- | --- | --- | --- | --- | --- | --- | --- | --- | --- | --- | --- | --- | --- | --- |
| B1 | 4.6 µM | 2.7 µM | 3.2 µM | 2.8 µM | 2.3 µM | 2.3 µM | 18 µM | 2.6 µM | 10 µM | 6.2 µM |  |  |  |  |  |  |  |  |  |  |
| B2 |  |  |  |  |  |  |  |  |  |  | 2.1 µM | 4.3 µM | 4.4 µM | 3.8 µM | 2.2 µM | 4.3 µM | 11.5 µM | 1.4 µM | 4 µM | 3 µM |
